# In the DeepSol protein solubility set:
# Experiment: soluble on expression in E. coli; label from the status in PepcDB or PDB records
row,Sequence,soluble on expression in E. coli
1,MGSDKIHHHHHHMIPYNQSSVSTLQTKERKIDVFSVEGNVDNETVKSFGEEWTAFDSFNETEIYNAGDNYFDIVPETILKHITNALDVGCGTGRWSYYLSEKVGFIECIDPSEAVIAASSLLSGKNNIRISKAGVDNIPFADGTFDFVFSLGVLHHVPDTKKAVHACVQKLKMNGHILLYLYYNLENRGLIFKTLFHLSNSLRWMVSKLPGAIKRFVCDLLAIVIYMPFVIVSRILIKLNLAASVVSRVPLSWYADKSFNIIRNDSLDRFGTPLEQRFSKQQITDMLIHAGCTDIVFADNAPFWRVIAKKK,not soluble
2,MGSDKIHHHHHHMIQHKPDLIFLDINLPDINGIDFAEQVQSILPEVHIVFITAYDEYAVKAFELNAIDYVMKPVQRDRLNRTINRITDRKTVEPLRSQTDSKIISCFQTLHFQKGSEIGKAEPIDVNWRTAKARELFAYLVQHRKQPVRKDVLLEFFWPESDVKKGYAQLYSAIYQIRKMLDSLQMNSTVVSFDKSYKLHLNGTKLDVEEWERELRQLPNITEDTLPSYRRLLETYKGDYLAEEAYLWAENERERLRTLYHSTFNKVTTYYLECGYYTDAITLCQRVQTLHPLMETSYFLLMQVYAKMGDNHSVKSQYEKLNHVLEAEYGIHTSDSIENWYNEWKKQLQ,not soluble
3,MGSDKIHHHHHHMIRFENISKQNSHRILFLDSSAALNRGEKIGLVGPNGAGKTTLFRMITGEEVPDAGQVSIEKQVSIGYFNQDVGEMSGRSAVAEVMDGAGPVSSVAAEMAELEAAMCDPDRDDMDAVVERYGEVQARFEELGGYELEGRAREVLAGLSFSQEMMDGDVGALSGGWKMRVALGRILLMRPDAMLLDEPSNHLDIESLIWLEEFLKGYDGALLMTSHDREFLNRIVTKIIEIDGGSLNTYSGDYAFFERQRAQNEKQQQAQFERQQAMLAKEIKFIERFKARASHAAQVQSRVKKLDKIERFEPPRRRQTVSFDFPPAPRSGDDVAVFKSVHKGYGSRAIYQGLDLIIRRKERWCVMGVNGAGKSTLLKLVAGAADPDSGTVTVGASVKMGYFSQHAMELLDGERTVYESLEDRFPQANQGSLRTLAGCFGFSGDDVEKKCRVLSGGEKARLVMAIMLYNPPNFLVLDEPTNHLDLDTKQMLIAALANYEGTMLFVSHDRHFLAALSNRVLELTPEGVHQYSGGYTEYVARTGHEAPGLRS,not soluble
4,MGSDKIHHHHHHMIRSTLSSWREYLTPITHKSTFLTTGQITPEEFVQAGDYLCHMFPTWKWNEESSDISYRDFLPKNKQFLIIRKVPCDKRAEQCVEVEGPDVIMKGFAEDGDEDDVLEYIGSETEHVQSTPAGGTKDSSIDDIDELIQDMEIKEEDENDDTEEFNAKGGLAKDMAQERYYDLYIAYSTSYRVPKMYIVGFNSNGSPLSPEQMFEDISADYRTKTATIEKLPFYKNSVLSVSIHPCKHANVMKILLDKVRVVRQRRRKELQEEQELDGVGDWEDLQDDIDDSLRVDQYLIVFLKFITSVTPSIQHDYTMEGW,not soluble
5,MGSDKIHHHHHHMISDSISKRRSIRKYKNQSISHETIEKIIEAGINAPSSKNRQPWRFVVITEKEKESMLKAMSKGIQNEINDNGLLPGSRQHIAGANYTVEIMKQAPVTIFILNILGKSPLEKLSPEERFYEMANMQSIGAAIQNMSLTAVELGLGSLWICDVYFAYRELCEWLNTDSQLVAAISLGYPDEEPSRRPRLQLSDVTEWR,not soluble
6,MGSDKIHHHHHHMIVNLSRLGKSGTGMWQYSIKFLTALREIADVDAIICSKVHADYFEKLGYAVVTVPNIVSNTSKTSRLRPLVWYVYSYWLALRVLIKFGNKKLVCTTHHTIPLLRNQTITVHDIRPFYYPDSFIQKVYFRFLLKMSVKRCKHVLTVSYTVKDSIAKTYNVDSEKISVIYNSVNKSDFIQKKEKENYFLAVGASWPHKNIHSFIKNKKVWSDSYNLIIVCGRTDYAMSLQQMVVDLELKDKVTFLHEVSFNELKILYSKAYALVYPSIDEGFGIPPIEAMASNTPVIVSDIPVFHEVLTNGALYVNPDDEKSWQSAIKNIEQLPDAISRFNNYVARYDFDNMKQMVGNWLAESK,not soluble
7,MGSDKIHHHHHHMKAVTLRANCDPLFSLFMTSFSEANNIYILNFKKRALQSLLKVKLMYYHESIDSKSKIFPVKIILHDKAVNVPKHWHRSLEISYTYQGSIPDFTIAGKHYSTRPGTILVVNSNEIHSVFFPKTKKRQDSLALSLIFPYPFLMKIVPNYRYRRYEIPDKELLTANNQQNLAELEGILKKFFQFASHQTNSLDEISKTSQILQILYLLTKNFSSIVTTPNDLATTDKPFERLDEIIMFIQEHAKEALTVTKIADHFNLSTSYFSRNFKYYMGNSVIEYLNLVRLHEAYQLLTNTKKSILVISTQVGFPNEKAFTRTFKRIYKVTPTDYRKRLSGKNRTNIL,not soluble
8,MGSDKIHHHHHHMKCILYKKALPLILLSCLLLGACGNSKNDSVSKEPLSHTSTEKGTWDSAPKVLTPTADGTQTYTCDVASIDASNSGSGYIIVNYHGSNQKVKLQITGPDSVTYTFDLHGGNEVFPLVASSGSYTVTVFENVEGTQYATVLSQVISVSITDEFGPYLYPNQYVNFTADSPAVKEGSSLAYYCSSDTEVVESVYNYIISNFKYDYDKAKNVKSGYLPDVDKVFTENTGICFDYAAVMATMLRTQAIPTRLEVGYAGEEYHAWISTYIKDKGWINGIIEFDGTSWNMLDPTFASTSDSPKKFIAQKSDYITKYVY,not soluble
9,MGSDKIHHHHHHMKDKDINNDFNHIFPKDIRDDFLFSLDSYRLFLEGLSINPSLFYQKWSDVHLQSIIDKYWKPTQKSDWKWSLALPIFSLLENYINTFNKPIIIGFSGLPGSGKSTLGLWIDSVARELSLDIKVISLDDFYLPGHEMDVAMTGNPWNVPRGFPGSHSLDLLNQSLDVFLKTGVLNSPTFDKSLRDGKGDRSGWCDSQPRVLILEGWFVGCEAVSDLSKIDSMAADEFNLSLSQSEKDYRILIQESLFEYSHIWKKFEKIWHLKSSQFNNTILWKSQQEGEMIKLKGSGLKGNNLSNFIRMIQTSIPQQSLSFINSDTTVGINQDRRINFLKTSKYYF,not soluble
10,MGSDKIHHHHHHMKDKVVVSQLGARMHYAVPRIFASAGRLAHFYTDICATKGWPRIVNSFPATLYPAPVKRLAGRLPKGVPTALTTVFSNFGLRSVLRHMRAKDVVEETSHAIWAGSIFSEMVARRGFHGAAGLYAFSGDALEQMQAAKQQGLWTAVEQMIAPRDVVEMLLNQEMKRFPAWAGPVQENPHARLFAEREKAEWRLADVIVCPSEFVRKNVVACGGPEDRCVVVPYGVNAAVANNRPARMPGPIRVLTVGEVGLRKGSPYVVEASRLMEGSARFRMAGRVRLADDVKQQISQWVELRGIVPRSQIAEEFRWADVFLLPSLCEGSATAVYEALAAGLPVITTENTGSVVRDGIEGFIVPVCDPEAIATAVRALAGNPELMRSMSANALLRAAEHTVESYGERLLAVLSGPHLAGSVGLCQTEEARYLGNNTI,not soluble
11,MGSDKIHHHHHHMKEIVEQNIFNEDLSQLLYSFIDSKETFSFAESSILHYVVFGGENLDVATRLGAGIEILILSSDIMDDLEDEDNHHALWMKINRSESLNAALSLYTVGLTSIYSLNNNPLIFKYVLKYVNEAMQGQHDDITNKSKTEDESLEVIRLKCGSLIALANVAGVLLATGEYNETVERYSYYKGIIAQISGDYYVLLSGNRSDIEKNKHTLIYLYLKRLFNDASEDLLYLISHKDLYYKSLLDKEKFQEKLIKAGVTQYISVLLEIYKQKCISAIEQLNLDKEKKELIKECLLSYTKGDTRCKT,not soluble
12,MGSDKIHHHHHHMKEPLSLSFDEQMALFEERGMQMTSKDVEKLKVIGYYRIKQFAAPLANKKIVNENTVYDYKGIYFSDVLKRYYQDKNLRIHLLHAIEKIEVALKTWVAFILGEQYGAFGYLNFSEWCDKNRYSKFEIEKRQFFFKKDLLRATSRSCTEDIKLKKNKEKDNFPSIWLAVEVLTFGELVRLVEIMSTRNKRKLSKMFRCTDIELLSWLKCINFVRNACAHNANVIDLQLETKPVCRSDWKDYLYNVNKSNNGTPSNKLAIVIFIIKTLVTPINERYGWKNIRRNIARLVDSSDKNAHLLGFSDCASAYKVLEKSNGTTTKASLP,not soluble
13,MGSDKIHHHHHHMKFIFDIDGTICFKGNAVTKGIIHALDVCQSKGHEVIFASARPIRDLLPVLPNHMHHYSMIGGNGAFIAKGKDTIEVITFDPGTVSAIHSIIKKHSLSYLIDSHWNYSYTGSENHPIYKNIDPNQLANNVHIDEIKEVVKVVLFPDHVQKEYIMNMLTELPIRIYEHDNEGIVDISPENIDKWVGLQRLGIKEREFVVFGNDSNDLSMFLHAKESICVGSHEVLLGYASTCLKIDEQSIVNKIIELSELYA,not soluble
14,MGSDKIHHHHHHMKFTPELESGVLIKRYKRFLADIMLPNGQEITIHCPNTGSMKNCLFPGEKVWFSTSDNPKRKYAHTWELMQTDQQHYIGINTGRANALAEEAINRQVITELLGYEHLKREVKYGSENSRIDILLTSQNRPECYIEVKSCTLLEDQMGYFPDAVTTRGQKHLRELIHMVELGHRAVLLFVVQHSAITSVKPARHIDPHYADLLEQAVANGVEVLAYKTALSPQGSLITSACKVML,not soluble
15,MGSDKIHHHHHHMKGFLQTVTGPVAHTDMGLTLPHEHLFNDLSSVVDEPHYAFSQQLVGKKVSADLQWGLKHDPYCCADNMDRKEIDDVIFEINNFMSLGGRTIVDATGSESIGRDASALREVALKTGLNIVASSGPYLEKFESTRIHKPVELLASLIDKELNQGIGETDIRAGMIGEIGVSPAFTQAERNSLRAASLAQCNNPHTAMNIHMPGWLRLGDEVLDIVLEEMNVSPAKVSLAHSDPSGKDVVYQRKMLDRGVWLEFDMIGLDITFPKEGVAPGVQETADAVANLIALGYADQIVLSHDVFLKQMWAKNGGNGWGFVPNVFLAYLAARGVDNDTLRKLCIDNPARLLTA,not soluble
16,MGSDKIHHHHHHMKHLSLEALRSFSAVIELGSMTLAGERMGRSQPAISLQLKKLEQQLGVELLTRQGSGFALTADGDVLFDYAQRMLALNDQAWAQFEPQQVSGKVRLGITSEFASSLLPKVLGQFAQVYPQVTLQVTSALSKDLLSGLGQQFDIILALREQTNKSDVLIQREELVWVGLPGLLEQPGWPMVVAPEGCIYRRRAEQSLQRAHQPYRITYTNTDFSGLTAALNSGLGITVLAKSTVPKDIPILESFSDNKPLPNPGSVNVIMRLAGGASSAASQLADYLKARI,not soluble
17,MGSDKIHHHHHHMKHSRTAAAKRKTGVFARLADLYTRMEQEYSDKARAAGLTCAGCPDNCCTSYFQHHTHVEWLYLWRGMNRLPEARRAAYLARAKDVVEQSRDLLARGIRPRLMCPVNDDGLCGIYEHRLMICRMHGTRNVLALPDGGLRSFSGCFRFVECTAGQQAEAVPTVDRTPYYRELAALEMEHVGPRLKKLPRVDLTLAEMLFYGPPKL,not soluble
18,MGSDKIHHHHHHMKIHPIPPLQCLVFFDAAARHGNFTRAAEELNVTQGAVSKQVVKLESYLGMQLFVRDAKALHLTRAGQTYAGRIHDMLTGCAEATALVMKEPSPHSITIACASGTAGMFLTPIIADFSHEYPNVAIRILVREGVFNLNPAEFDIGVYYIRDVPPPGMSGIRIIEEEVQAYCAPSYLGRRRVSPHELTNVTLLVAEEQQRQWMSWRDWFHLCDSEIAYKPSRTITANSYPVLLQLALRGHGVLLGWNQMITPLVERSDLVLASDASASFGGAYQLVWPDDRRDTAAVTHFREWLLKRVPWKG,not soluble
19,MGSDKIHHHHHHMKIKNDLIYDEIHALKADLYQPDNASKGLIIDIHGGGWFRGDKAKDQDLAEALVKDGFSVIVPNYRLTPDAYYPAPLDDMDTLYHWIKTSSKLFDSDRIAVVGSSAGGNMAVEMGIKYGLPIVSLSGILDIDDWLNEHTAVIAQPDHKQDFTNSKSSEINQTGQNDAFYKWFVTNYFNGNSDQYSLATPYKHVNSQPGPMFLANSLNEFVPTSGVLEMAKILTSKNVPYVEWMLPGTQHAKGYLEIVYPTVLNFLNQYI,not soluble
